Source: US5807729A, “Metalloprotease having increased activity” (Novo Nordisk A/S, priority 1995, dated 1998)

Legend:
FTC-labeled casein [1] = experiment: Protease analysis using FTC-labeled casein; format: biochemical
Procedure: Samples are incubated at room temperature for 30 minutes.

FTC-labeled casein [2] = experiment: pH profile, FTC-casein hydrolysis; format: biochemical
Procedure: Purified p45 metalloprotease (10 microliters, 0.005 mg/ml) is added to 30 microliters of Universal pH buffer (pH 5-11.5), and 20 microliters of FTC-labeled casein are incubated at 37° C. for 1-hour. 150 microliters of 5% TCA is added to acidify and precipitate casein (1-hour at room temperature). […] Samples are then analyzed on the fluorimeter (slit width=2.5 nm; excitation freq.=490 nm; emission freq.=525 nm; integration time=2 sec).

[3] = test system: succinyl-Ala-Ala-Ala-p-nitroanilide; experiment: Hydrolysis of succinyl-Ala-Ala-Ala-p-nitroanilide; format: biochemical
Source text: Both p45 metalloprotease and a neutral zinc endopeptidase secreted by Flavobacterium meningosepticum poorly hydrolyze the substrate N-[3-(2--furyl)acryloyl]-Leu-Gly-NH2. However, the neutral zinc endopeptidase secreted by Flavobacterium meningosepticum will hydrolyze the vertebrate elastase substrate succinyl-Ala-Ala-Ala-p-nitroanilide, a substrate that thermolysin cannot hydrolyze (Table 2). Therefore, succinyl-Ala-Ala-Ala-p-nitroanilide hydrolysis by the p45 metalloprotease is investigated. […] This effect further differentiates the p45 metalloprotease from other existing metalloproteases.

[4] = test system: pro-trypsin-like Fusarium oxysporum protease; experiment: Proteolytic enzyme assay: tryptic activity released from pro-trypsin-like protease, L-BAPNA, 405 nm; format: biochemical
Procedure: Metalloprotease activity is measured as released trypsin activity from pro-trypsin-like Fusarium oxysporum protease deposited at the Deutsche Sammlung von Mikroorganismen, Gottingen, Germany under the number DSM 2672, after a 30-60 min pre-incubation at 25° C. in 0.1M Tris, 2 mM CaCl2, pH 7 (at lower pH, 100 mM borate, 10 mM DMG, 2 mM CaCl2 is used).
Metalloproteases contain a catalytic zinc metal center which participates in the hydrolysis of the peptide backbone. The active zinc center differentiates these proteases from calpains whose activities are dependent upon the presence of calcium. Confirmation of a protease as a metallo-protease is loss of proteolytic activity accomplished by removal of the zinc center with 1,10-phenanthroline (1 mM) followed by titration with Zn^2+ (0.1-100 μM) to restore full activity.
However, when combined the metalloprotease cleaves recombinant pro-trypsin-like Fusarium oxysporum protease disclosed, supra to yield the active tryptic protease. Metalloprotease activity is halted upon the addition of 1 mM 1,10-phenanthroline (Table 1).

[5] = test system: FAGLA: N-(3-[2-Furyl]Acryloyl)-Gly-Leu amide; experiment: FAGLA hydrolysis (345 nm); format: biochemical
Procedure: The thermolytic substrate FAGLA: N-(3-[2-Furyl]Acryloyl)-Gly-Leu amide is used to further characterize the p45 metalloprotease and B.t. thermolysin. Reaction mixtures contain 100 microliters of N-(3-[2-Furyl]Acryloyl)-Gly-Leu amide (FAGLA) (2 mM) and 100 microliters of various concentrations of either thermolysin (Boehringer Mannheim) or purified p45 metalloprotease. Thermolytic activity is determined as a decrease in absorbance at 345 nm on the recording spectrometer for one minute(Shimadzu, UV160U). The linear range of the assay for thermolysin is 10-500 ug/ml thermolysin in the assay mix.

[6] = test system: pro-trypsin-like F. oxysporum protease; experiment: p45 metalloprotease pH stability; format: biochemical, Fusarium oxysporum; conditions: 20 minutes pre-incubation at room temperature
Procedure: To determine the pH stability of the recombinant p45 metalloprotease, the partially-purified p45 metalloprotease is diluted 10-fold into universal buffers at pH's of 3.5,4,4.5, 5.2, 5.64, 6, 7, 8, 9, and 10 and pre-incubated at room temperature for 20 minutes. The pre-incubated samples (10 microliters) are added to 40 microliters of buffer containing 0.1M borate, 2 mM CaCl2, and 10 mM dimethylglutarate, pH 6.5 and 50 microliters of crude A. oryzae broth containing pro-trypsin-like F. oxysporum protease and subsequently incubated another 30 minutes.

[7] = test system: Ac-Pro-Leu-Gly[2-mercapto-4-methyl-pentanoyl]-Leu-Gly-OEt; experiment: Hydrolysis of the thermolytic merc-peptide substrate (Ellman's reagent, 405 nm); format: biochemical
Procedure: The thermolytic substrate Ac-Pro-Leu-Gly[2-mercapto-4-methyl-pentanoyl]-Leu-Gly-OEt (i.e. the merc-peptide) is also used to further characterize the p45 metalloprotease and B.t. thermolysin.
Reaction mixtures contain 100 microliters of Ac-Pro-Leu-Gly[2-mercapto-4-methyl-pentanoyl]-Leu-Gly-OEt (1 mM, and 1 mM Ellman's reagent) and 100 microliters of either B.t. thermolysin or purified p45 metalloprotease (0-3 ug/ml) in sample buffer.

[8] = test system: pro-trypsin-like F. oxysporum protease; experiment: Second pH profile, pro-trypsin-like F. oxysporum protease assay; format: biochemical, Fusarium oxysporum; conditions: 15 minutes, room temperature
Procedure: A second pH profile is determined utilizing the pro-trypsin-like F. oxysporum protease assay whereby p45 metalloprotease activity is determined based on the processing of pro-trypsin-like F. oxysporum protease to active trypsin-like F. oxysporum protease Reaction mixtures contain 125 ug of purified pro-trypsin-like F. oxysporum protease and 0.13 ug of purified p45 metalloprotease (i.e. a molar ratio of pro-trypsin-likeF. oxysporum protease/ p45=1750:1) are added to "universal-buffer" solutions prepared at different pH's (i.e. pH values of 2.72, 4.11, 5.2, 6.05, 6.46, 6.98, 8.18, 9.02, 10.03, and 11.01) and the reaction mixtures are incubated for 15 minutes at room temperature. After incubation, 5 microliters are taken from each sample and added to microtiter wells containing 90 microliters of sample buffer (i.e. 0.1M borate, 2 mM CaCl2, and 10 mM DMG, pH 6.5), and 10 microliters of phosphoramidon (20 ug). […] Phosphoramidon is added to inhibit p45 activity and stop any further maturation of pro-trypsin-like F. oxysporum protease.

FTC-labeled casein [9] = experiment: Thermal stability profile, FTC-casein hydrolysis; format: biochemical; conditions: 15 minutes at various temperatures, Universal buffer pH 7; FIG. 9
Procedure: Purified p45 metalloprotease or B.t. thermolysin (Boehringer Mannheim) (50 microliters, 0.1 mg/ml) are incubated at various temperatures for 15-minutes in Universal buffer, pH 7. Ten microliters of sample are then added to 30 microliters of Universal pH buffer (pH 7) and 20 microliters of FTC-labeled casein and are incubated at 37° C. for 1 hour. 150 microliters of 5% TCA is added to acidify and precipitate casein (1 hour at room temperature). […] Samples are then analyzed on the fluorimeter (slit width=2.5 nm; excitation freq.=490 nm; emission freq.=525 nm; integration time=2 sec).

B1: p45 Metalloprotease: metalloprotease purified from Fusarium oxysporum DSM 2672 broth, 45 kDa band; also produced recombinantly in A. oryzae (protein)
chain: MRFSDSLLLIGLSSLAGAHPSRRAPNPSPLSKRGLDLEAFKLPPMAEYVPQDEVPDDVSAKVVTKRADYTETAKDLVKSTFPKATFRMVTDHYVGSNGIAHVNFKQTVNGIDIDNADFNVNIGADGEVFSYGNSFYEGKIPGPLTKRDEKDPVDALKDTVDVLSLPVEADKAKAEKKSKNHYTFTGTKGTVSKPEAKLTYLVDENKELKLTWRVETDIVDNWLLTYVNAAKTDEVVGVVDYVNEATYKVYPWGVNDPSKGSRSTVENPWNLAASEFTWLSDGSNNYTTTRGNNGIAQVNPSGGSTYLNNYRPDSPSLKFEYDYSTSTTTPTTYRDASIAQLFYTANKYHDLLYLLGFTEQAGNFQTNNNGQGGVGNDMVILNAQDGSGTNNANFATPADGQPGRMRMYLWTYSTPQRDCSFDAGVVIHEYTHGLSNRLTGGPANSGCLPGGESGGMGEGWGDFMATAIHIQSKDTRASNKVMGDWVYNNAAGIRAYPYSTSLTTNPYTYKSVNSLSGVHAIGTYWATVLYEVMWNLIDKHGKNDADEPKFNNGVPTDGKYLAMKLVVDGMSLQPCNPNMVQARDAIIDADTALTKGANKCEIWKGFAKRGLGTGAKYSASSRTESFALPSGC
- Specific Activity, substrate FTC-Labelled Casein (FTC-labeled casein [1]): 170 FU/min*mg
- FTC-casein hydrolysis relative to trypsin-like F. oxysporum protease (FTC-labeled casein [1]; on a molar basis at pH 9): approximately 16 fold
- pH at which the protease functions optimally (FTC-labeled casein [2]): ~9.5
- optimum pH for hydrolysis of FTC-casein (FTC-labeled casein [2]; universal pH buffers pH 5-11.5, 37° C., 1 hour, FIG. 10): 9.5
- Specific Activity, substrate Ala-Ala-Ala-pNA [3]: < 2 pmol pNA/min*mg
- hydrolysis of succinyl-Ala-Ala-Ala-p-nitroanilide ([3]; substrate 4.4 mM in 0.1M Tris, pH 8): neither, the p45 metalloprotease nor the B.s. thermolysin would hydrolyze
- specific activity relative to the conventional Bacillus metalloprotease ([4]; based on absorbance at 280 nm, preparative IEF fraction, FIG. 2): about 10 fold
- tryptic activity of the sample alone ([4]; sample alone): do not contain any tryptic activity
- Tryptic Activity ([4]; without 1,10-phenanthroline, without Zn2+): 1.33 Δ Abs/min × 10^-4
- Specific Activity, substrate FAGLA [5]: 0.76 -AU/sec*mg
- specific activity for FAGLA, times lower than that of thermolysin [5]: approximately 250 times
- acceptable pH range (stability) [6]: 6.5-9
- pH at which most stable ([6]; pH 3.5-10): 8
- Specific Activity, substrate merc-peptide [7]: 57 AU/min*mg
- effectiveness at hydrolyzing the mercapto-peptide relative to B.s. thermolysin [7]: about 25 fold
- level of processed pro-trypsin-like protease at pH 6.5 relative to the level at pH 9 [8]: approximately 24%
- pH of maximum levels of processed pro-trypsin-like protease ([8]; molar ratio pro-trypsin/p45 1750:1): 9.5
- optimum temperature for hydrolysis of FTC-casein (FTC-labeled casein [9]): 50 °C
